Measured values reported in PMC3551999.

Key:
[1] = biological target: TBP;TFIIA (human;human, UniProt P20226;P52655;P52657 1-339;1-376;1-109, |); assay: smFRET
[2] = biological target: TBP (human, UniProt P20226 1-339); assay: smFRET
Chain of TBP (P20226 whole entry): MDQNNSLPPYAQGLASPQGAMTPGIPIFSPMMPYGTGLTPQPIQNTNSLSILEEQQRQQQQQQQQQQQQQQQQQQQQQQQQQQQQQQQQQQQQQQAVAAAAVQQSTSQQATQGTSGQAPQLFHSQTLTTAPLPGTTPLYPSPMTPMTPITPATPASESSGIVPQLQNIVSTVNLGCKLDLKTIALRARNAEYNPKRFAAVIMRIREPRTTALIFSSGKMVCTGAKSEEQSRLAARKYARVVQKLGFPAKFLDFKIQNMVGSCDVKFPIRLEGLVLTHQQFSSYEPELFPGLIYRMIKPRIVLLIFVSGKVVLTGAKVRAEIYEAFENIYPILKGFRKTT

Chain of TBP;TFIIA (P20226 whole entry, chain 1 of 3): as the sequence (P20226 whole entry) above
Chain of TBP;TFIIA (P52655 whole entry, chain 2 of 3): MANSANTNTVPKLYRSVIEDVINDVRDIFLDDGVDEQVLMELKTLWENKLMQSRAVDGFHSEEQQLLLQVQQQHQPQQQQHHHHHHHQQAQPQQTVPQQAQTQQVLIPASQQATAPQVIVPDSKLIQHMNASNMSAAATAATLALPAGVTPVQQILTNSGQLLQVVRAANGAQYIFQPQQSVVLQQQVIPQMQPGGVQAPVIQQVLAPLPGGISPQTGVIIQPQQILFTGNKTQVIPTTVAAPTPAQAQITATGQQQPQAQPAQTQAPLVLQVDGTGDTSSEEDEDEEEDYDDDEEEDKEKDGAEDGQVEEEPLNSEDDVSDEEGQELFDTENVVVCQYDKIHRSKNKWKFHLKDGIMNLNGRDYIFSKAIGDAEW
Chain of TBP;TFIIA (P52657 whole entry, chain 3 of 3): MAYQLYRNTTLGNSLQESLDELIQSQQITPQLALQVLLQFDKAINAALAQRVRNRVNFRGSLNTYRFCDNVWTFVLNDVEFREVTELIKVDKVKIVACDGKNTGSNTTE

B1: TATA(A3) smFRET construct (mixed)
DNA 1: CAGGCTAAAAAAGGGACG
DNA 2: CGTCCCTTTTTTAGCCTGCACCACCACCACCACCACCA
DNA 3: TGGTGGTGGTGGTGGTGGT
B1: binds [1]; binds [2].
